IntAct's records for PubMed 10357812

B1: Synaptojanin-2 (Rattus norvegicus (Rat)), O55207-3 (parent)
chain: MALSKGLRLLARLDPTGPSSVLLEARGRGDCLLFEAGAVATLAPEEKEVIKGLYGKPTDAYGCLGELSLKSGGVPLSFLVLVTGCTSVGRIPDAEIYKITGTEFYPLQEEAKEEDRLPALKKILSSGVFYFAWPNDGACFDLTIRAQKQGDDCSEWGTSFFWNQLLHVPLRQHQVNCHDWLLKVICGVVTIRTVYASHKQAKACLISRISCERAGARFLTRGVNDDGHVSNFVETEQAIYMDDGVSSFVQIRGSVPLFWEQPGLQVGSHHLRLHRGLEANAPAFERHMVLLKEQYGQQVVVNLLGSRGGEEVLNRAFKKLLWASCHAGDTPMINFDFHQFAKGRKLEKLENLLRPQLKLHWDDFGVFAKGENVSPRFQKGTLRMNCLDCLDRTNTVQCFIALEVLHLQLESLGLNSKPITDRFVESFKAMWSLNGHGLSKVFTGSRALEGKAKVGKLKDGARSMSRTIQSNFFDGVKQEAIKLLLVGDVYNEESTDKGRMLLDNTALLGLGSNKQNSLSGMLDGKATPRILKAMTERQSEFTNFKRIQIAMGTWNVNGGKQFRSNLLGTTELTDWLLDAPQLSGAVDSQDDGGPADIFAVGFEEMVELSAGNIVNASTTNRKMWGEQLQKAISRSHRYILLTSAQLVGVCLYIFVRPYHVPFIRDVAIDTVKTGMGGKAGNKGAVGIRFQFHSTSFCFICSHLTAGQSQVKERNEDYREITHKLSFPSGRNIFSHDYVFWCGDFNYRIDLTYEEVFYFVKRQDWKKLMEFDQLQLQKSSGKIFKDFHEGTINFGPTYKYDVGSAAYDTSDKCRTPAWTDRVLWWRKKHPYDKTAGELNLLDSDLDGDANIRHTWSPGTLKYYGRAELQASDHRPVLAIVEVEVQEVDVGARERVFQEVSSVQGPLDATVIVNLQSPTLEERNEFPEDLRTELMQTLGNYGTIILVRINQGQMLVTFADSHSALSVLDVDGMKVKGRAVKIRPKTKDWLEGLREELIRKRDSMAPVSPTANSCLLEENFDFTSLDYESEGDVLEDDEDYLADEFGQPVVSDSELGGDDSSDTMSASTPASKSPALAKKKQHPTYKDDADLMTLKLELEVAGNFRHRSPSRSLSVPNRPRPPHPPQRPPPPTGLMVKKSASDASISSGTHGQYSILQTAKLLPGAPQQPPKARTGISKPYNVKQIKTTNAQEAEAAIRCLLEAGGGVPESAPGATPLRNQGSSKPEASLGPPVLPRRPVPRVPTMKKPTLRRTGKIVFCSSSQASQPCSLLQRHEFVRTVAAQRLTPVDASGSSV
partner: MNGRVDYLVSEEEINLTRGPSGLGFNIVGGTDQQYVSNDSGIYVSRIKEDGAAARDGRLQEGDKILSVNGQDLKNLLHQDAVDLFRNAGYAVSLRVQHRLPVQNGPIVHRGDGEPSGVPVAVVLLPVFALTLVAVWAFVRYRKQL

Variants of: B1
Settings: with syj2b_rat Synj2bp

effect of a mutation on the interaction	Variant
disrupting interaction	S1291A
disrupting interaction	V1293A
disrupting interaction	G1290A
